# How the values were obtained:
# [1] = biological target: CH505 TF loop D mutant M9 Env (pseudovirus) (HIV-1); experiment: cell-based or functional assay
# [2] = biological target: CH505 TF loop D mutant M20 Env (pseudovirus) (HIV-1); experiment: cell-based or functional assay
# [3] = biological target: CH505 TF loop D mutant M7 Env (pseudovirus) (HIV-1); experiment: cell-based or functional assay
# [4] = biological target: CH505 TF loop D mutant M8 Env (pseudovirus) (HIV-1); experiment: cell-based or functional assay
# [5] = biological target: B41 SOSIP.664 gp140 trimer (HIV-1); experiment: negative stain EM
# [6] = biological target: BG505 SOSIP.664 gp140 trimer (HIV-1); experiment: negative stain EM
# [7] = biological target: CH505 TF chimeric SOSIP.III trimer (CH505TFchim.6R.SOSIP.664v4.1) (HIV-1 (CH505 gp120 with BG505 gp41, chimera)); experiment: negative stain EM
# [8] = biological target: CH505 transmitted/founder (TF) gp120 Env (HIV-1); experiment: competition ELISA, competitor biotinylated CH241
# [9] = biological target: CH505 transmitted/founder (TF) gp120 Env (HIV-1); experiment: competition ELISA, competitor biotinylated CH240
# [10] = biological target: CH505 transmitted/founder (TF) gp120 Env (HIV-1); experiment: SPR, antibody captured, gp120 injected
# [11] = biological target: CH505 transmitted/founder (TF) gp120 Env (HIV-1); experiment: competition ELISA, blocking of CH106 binding to CH505 TF gp120
# [12] = biological target: CH505 transmitted/founder (TF) gp120 Env (HIV-1); experiment: competition ELISA, blocking of sCD4 binding to CH505 TF gp120
substance,measurement,setting,value
CH235.9 N30T (antibody),"neutralization IC50, TZM-bl pseudovirus assay",[1],> 44 µg/mL
same,"neutralization IC50, TZM-bl pseudovirus assay",[2],> 44 µg/mL
same,"neutralization IC50, TZM-bl pseudovirus assay",[3],> 44 µg/mL
same,fold increase of the neutralization IC50 against CH235.9,[4],37 fold
same,"neutralization IC50, TZM-bl pseudovirus assay",[4],24.3 µg/mL
CH235.9 Fab,stoichiometry (Fabs per trimer) (Fabs per trimer),[5],3
same,stoichiometry (Fabs per trimer) (Fabs per trimer),[6],3
CH103 Fab,binding ratio (CH103 to gp140) (CH103 per gp140),[7],1
same,stoichiometry (Fabs per trimer) (Fabs per trimer),[7],3
same,stoichiometry (Fabs per trimer) (Fabs per trimer),[6],3
CH106 (antibody),IC50,[8],14.3 µg/mL
same,IC50,[9],2.3 µg/mL
CH103 lineage unmutated common ancestor (UCA) (antibody),Kd,[10],227 nM
same,kon,[10],37000 M⁻¹ s⁻¹
CH235 Fab,stoichiometry (Fabs per trimer) (Fabs per trimer),[5],2
same,stoichiometry (Fabs per trimer) (Fabs per trimer),[6],1
CH241 (antibody),Kd,[10],0.7 nM
same,koff,[10],0.00033 s⁻¹
same,IC50,[11],2.6 µg/mL
same,IC50,[12],1.5 µg/mL
CH235.9 (antibody),"neutralization IC50, TZM-bl pseudovirus assay",[4],0.66 µg/mL
CH235.12 Fab,stoichiometry (Fabs per trimer) (Fabs per trimer),[5],3
same,stoichiometry (Fabs per trimer) (Fabs per trimer),[6],3

# Source: patent publication US10968255
